This experiment has as its target Human FcγRIIIa (human) (UniProt P08637). The experiment is described as follows: SPR (Biacore), FcγRIIIa immobilized; 1:1 with mass transfer fit. (SPR reads the build-up and loss of mass on a sensor chip optically.)

By Kd is commonly meant the constant that tells how readily two partners part at equilibrium.

The substance G-011 (from UniProt P01854 104-210) displayed a Ka of 1.8e+07 M⁻¹ and a Kd of 5.5 µM.
Regarding mouse IgG2a (antibody), the Ka amounted to 2.1e+08 M⁻¹ and the Kd was 0.0047 µM.

These data come from patent US20100239633A1.
